The values that follow come from a protein production outcome set (Wang et al. 2014).

A short description of the data set: label from the status in PepcDB records.
On to “MSQEDITGKDRLQELIGADYRLQWIIGHGGMSTVWLADDVVNDREVAIKVLRPEFSDNQEFLNRFRNEAQAAENIDSEHVVATYDYREVPDPAGHTFCFIVMEFVRGESLADLLEREGRLPEDLALDVMEQAAHGLSVIHRMDMVHRDIKPGNMLITANGIVKITDFGIAKAAAAVPLTRTGMVVGTAQYVSPEQAQGKEVTAASDIYSLGVVGYEMMAGRRPFTGDSSVSVAIAHINQAPPQMPTSISAQTRELIGIALRKDPGRRFPDGNEMALAVSAVRLGKRPPQPRTSAMMAQAEAPSPSESTAMLGRVARPATITQEAAPKRGSGIGIGLFIAALLAVIIGAVIYAGTTGILFNDTPEETTTPETITETYTPTVEETTSQWVPPTPPTRSTFTEPETTSHRPTTSEESTSEEPTTEAPTSSRTVPQIPTSTPRTSASVPVETNAPADDLIDAVNGLLDVGGAQ”, for which the protein production entry is reported as “failed”.

As to “MSDVEDVPETQLEIDVSDGAGLEDEDDDDMEQITAQKVLEIIETAWINEMCAPEILPSQTDMLELMVSQVAHMEEQMRDLDKNDFRAVVHSMELERVRYIMASYLRCRLQKIETFTQHILNQEESREPDDKRLSPEETKFAQEFASNVDEYFHKVATQYMPNQQRGEAEQRIVTPNLMSHVFLKANVAVPAVIVGVDDEEVDMAAGSQHIIPYQLVADLIQNNQAQLI”, the protein production entry is on record as “failed”.

For the sequence “LLEIKRKGAKRGSQHYSDRTCARCQESLGRLSPKTNTCRGCNHLVCRDCRIQESNGTWRCKVC”, the protein production result is given as “not failed”.

Take “LDTIPTTYVDAGSVFGKTGDAEKVLNGGWNYLMETFNSYANPGYGAMLRANDAMGSDVVLNSKYGFRTHNEFSAIYGKGGTNTLSWLLAYRVINDCNGVLDNIDAAEGTQADRNRIKGQALALRGFLYLHLASCYSFAIDKDPDAVCAPIYTQSTDETIAAEGKPASSVSEVYAQSINDLEEALELIPETYVRDAKHKIDNEVVLGILSRACLYARQWEKAKTYSDKLLAKDNYLMTESEYKAGFNSVDNKEWIWGHAQTNDQSNASYQFHYLDTTTKGSYYYSFNVDPYFRDLFEDGDYRKEMLFWATDPGADVESAAYVWMRNSKFRFRDIENQLGDIVLMRVAEIYLINAEAKAHLNDPDAINKLNDLKTARGAKTIHTNLSQQDLLETIWLERRKELWGEGFSLIDIIRNQQTVVRNAYPEGPIDYIYTDENGQTHTLKKKTQGHRFFNFPDKSAFCPNSKYYLYRITDSEELANKNLYKDHPKLSIYTK”: the protein production result is reported as “not failed”.

As to “MITSNLFDLRRWRANMSAMRFFALTSAALPLALMLLTSSFPAAAAEKSAAATKKDVIVEQADANNSPKQHLDQLFSQLKRERDPEKASGIANEIRMEWNDSGSATVNLLMQWADKAIEEKRNPAALDFLDEAIALKPDYAESWNRRATLNFVMGNYRKSMSDIERVLDLEPRHFGALSGMAAILSNSGNDQLTLKAWERFLDIYPAERTAQEQANTLAEKLAGNRT”, the protein production result is recorded as “failed”.

Consider “MNQHLSISPSVSRPVWHQAIPLLLLEAALVLTWSSGFIGARFSLDYAPPLLVVFWRCVVVTLLLLPFVARQLVTLPPTLLLKNTGIGLLAMTGYVAGVTQGIALGVPAGLAALFADLLPMGMALLAALVLGQRLVWQIWAGLVVGLIGVVLVTHSALEWGNAPLWAYGLPLLGMFSLAIATLWQKHSTTSQPMKLLPNLWLQYFISSFAFAIIQGTQGGLAPIASSGFALSVAWTVGLATLGGYGLYWVCLRRAKATRVASVLYLSPPVTMLWAWAMFDEPLSWQIALGMVVSGVGVWMVIRAEARQVAS”, for which the protein production entry is given as “failed”.

As for “MIYPDELAVITSKFELELSETDRNKVHENVSTVSGRDFFMSIFEGLKMKDKILEYWDFRSSDYHTEYAHCMDEEMDVWKSVFSEILLTDKKVRAVEVGTGPGILAISLAAMGHDVTGVDLSENMLEKAAANAREKGVNVLLMRGDAEDIPLKDGEYDFVLSKYLLWTLPQPDKFLGECCRLLKDGGIMMIIDGLWFHNPDGTEKKSSRYERFDELYGDVKPNLPFAKENTPERIADLAESHGFEDLTWRFLDDYDAFLERNDPSGHAAAYIKPPHMILAKKKVRNS”, the protein production entry is “failed”.

Turning to “MPPPIHPSSSAAPGPVPNHLIWAIVSTVLGFCLCCPALISGIVAIVFSSKVNGLLNQGDIDGARRASNTAKTWCIVTSVLAAIGLLINIGMVATGGMQGYMDYMQQLQHMQ”, the protein production result is reported as “failed”.

For the sequence “MKTTKIVIASLVSLTMVSNPLLTFAATNDVIDNTTEITTDKETSSTQPTIKNTLKAGQTQSFNDWFPDDNFASEVAAAFEMQATDTISEEQLATLTSLDCHNSSITDMTGIEKLTGLTKLICTSNNITTLDLSQNTNLTYLACDSNKLTNLDVTPLTKLTYLNCDTNKLTKLDVSQNPLLTYLNCARNTLTEIDVSHNTQLTELDCHLNKKITKLDVTPQTQLTTLDCSFNKITELDVSQNKLLNRLNCDTNNITKLDLNQNIQLTFLDCSSNKLTEIDVTPLTQLTYFDCSVNPLTELDVSTLSKLTTLHCIQTDLLEIDLTHNTQLIYFQAEGCRKIKELDVTHNTQLYLLDCQAAGITELDLSQNPKLVYLYLNNTELTELDVSHNTKLKSLSCVNAHIQDFSSVGKIPALNNNFEAEGQTITMPKETLTNNSLTIAVSPDLLDQFGNPMNIEPGDGGVYDQATNTITWENLSTDNPAVTYTFTSENGAIVGTVTTPFEAPQPIKGEDVTVHYLDDKGEKLADDEVLSGNLDDPYTSSAKDIPDYTLTTTPDNATGTFTTTSQSVTYVYTKNIVAAEPVTVNYVDDTGKTLSPSEILNGNVGDTYNATAKQIDGYTLSAEPTNATGQFTSSAQTVNYIYTKNPAPEKGVVEIHYVDEDNKQLNSTTEISGTIGDNYTTEPKTIEGYTLTTTPGNATGTFTTGSQTVTYVYTKNIEAAEPITVNYVDANGKTLAPSETLNGNVGDTYKATAKQIDGYTLSAEPTNATGQFTSSAQTVNYIYTKNTNTDQPLPTKKPTNTTPTKPSNLKTTEVKKASDTLPKTGDSAPWKSALLGVFLSSTALVIWKKKK”, the protein production result is on record as “failed”.

As for “MEHDERTHVPVELRAAGVVLLNERGDILLVQEKGIPGHPEKAGLWHIPSGAVEDGENPQDAAVREACEETGLRVRPVKFLGAYLGRFPDGVLILRHVWLAEPEPGQTLAPAFTDEIAEASFVSREDFAQLYAAGQIRMYQTKLFYADALREKGFPALPV”, the protein production result is “not failed”.

For the sequence “MMREFEIERQFNIKIEYIKPNKGVYFVKTNKGNKCLKKINYGIQKLLFVYAAKEHLINNGFKYVDKYCLNTEGNPYALVNEDIYTLSEWIEGRECSFYDTEDLVKASKTLAKMHECSKGYEPPENSKLKSDLGRWPHLIEKRVKALDKMRDMARKKGNKKDFDMNYIKNVDFFKEQGIKSMNVLKNSKYESLCAVAEEEKGFCHHDYTYHNIIINNEDNVYVIDFDYCKRELRAYDISNFMIKVLKRSNWSMKTAELILDSYSSISKLDDDEYGVIYAFLIFPQRFWRLANRYYYNEVNWGQNTFNNKMEELIEERERYIKFIEDFREAYNLQ”, the protein production entry is on record as “failed”.

With “QTQVNAEKKIQVEFVSANPTSSLHVGHGRGAAYGMTVANLLEATGAQVDREYYVNDAGRQMDILATSTYLRYLELLGQPLVFPKNAYQGDYVKEIAQSIIDKDGDAYVRSVADVYRNVPEDVQYAEELDSEGNKVVLSGDKEKHIDGLIANSQQLIGQGYRVFHQAALKAILDDIKDDLADFGVTFDQWFSEASLTQKIDEALQTLDQRGYLYEKEGNIWFKSTKFGDEKDRVVKRRNGQTTYFASDIAYHLDKLQRGYTHIVDIWGSDHHGYIARVKAAIDAMGYDSSKLTVLLVQFVSLWRGGEMVQMSSRSGQFVTLRELRQEVGNDAARFYYVMRKSEQHIDFDLDLAVSQSKDNAVYYIQYAHARICRMLEKANS”, the protein production result is reported as “failed”.

With “MNNFKLIVRKWYIPVLIISLITLVASAYALYWATIPETKETQISIRHYSALAYFSGGAEVKKDNPIWANGSFVTLPVYSYSLTPEYSGEFYFTTAPRGDITIETEAKIVYFYEVSDAPVWEKVYYAASNTSRGEIKTNFKINVTDLKSKINEAQNSFGVYLGKTGARIDVSVHYYGKITGKDVDETLSFKIPIDVQSTYYSFSTLNETRDFEMPSTRVVEVQKPLHMKVIPAALCTVSIIFAGLSVVYRTKYSDVSSLEREIERVSWEKKLKEVSFARMPETNLEMVEVERFEDISKAAEETFEHLFYDREKGVFFFIHGGVLYYCREK”, the protein production entry is “failed”.

In the case of “MGHHHHHHSHMATGQDRVVALVDMDCFFVQVEQRQNPHLRNKPCAVVQYKSWKGGGIIAVSYEARAFGVTRSMWADDAKKLCPDLLLAQVRESRGKANLTKYREASVEVMEIMSRFAVIERASIDEAYVDLTSAVQERLQKLQGQPISADLLPSTYIEGLPQGPTTAEETVQKEGMRKQGLFQWLDSLQIDNLTSPDLQLTVGAVIVEEMRAAIERETGFQCSAGISHNKVLAKLACGLNKPNRQTLVSHGSVPQLFSQMPIRKIRSLGGKLGASVIEILGIEYMGELTQFTESQLQSHFGEKNGSWLYAMCRGIEHDPVKPRQLPKTIGCSKNFPGKTALATREQVQWWLLQLAQELEERLTKDRNDNDRVATQLVVSIRVQGDKRLSSLRRCCALTRYDAHKMSHDAFTVIKNCNTSGIQTEWSPPLTMLFLCATKFSASAP”, the protein production result was “failed”.

Take “MNFPIDEKLIREKQNELHIKDLGMASIRDLVALVTNLEKATGTKFCRMEMGVPGLPAPQIGIETEIQKLREGVASIYPNLDGLPELKQEASRFAKLFVNIDIPARACVPTVGSMQGCFVSFLVANRTHKNREYGTLFIDPGFNLNKLQCRILGQKFESFDLFEYRGEKLREKLESYLQTGQFCSIIYSNPNNPTWQCMTDEELRIIGELATKHDVIVIEDLAYFGMDFRKDYSHPGEPLYQPSVANYTDNYILALSSSKAFSYAGQRIGVLMISGKLYEREYPDLEESFGRLRFGEALSSSALYALSSGATHSAQWGMAAMLKACNDGEYNFRDSVIEYGRKARIMKKMFLDNGFNIVYDKDGNEPLADGFYFTVGYKGMDSSKLIEKFVRYGMCAITLKTTGSKRNEAMRICTSLLPESQFPDLEKRLQMLNAEG”: the protein production result is on record as “not failed”.

In the case of “MTDFPTSLTAPKKGCEGCTGSPELGFSFDYAYQPIVNLHDQSIFAHEALVRGPNGEGAMSVLNQVTDQNRYRFDQKCRTTAIAGAAKLGMTERLSINFLPNAVYRPELCIRSTLEAAKQHDFPIERLIFETIESEHVDNNNHLSNILREYREFGFMTAIDDFGAGYSGLTLLADFQPDLIKLDMNLVRDIHRDRARQAIVRGVVTMCKDLGIKLIAEGIEHIEERDFLADCGISLMQGYLFAKPAFKALAQIAPEAWQKP”, the protein production result was “not failed”.

Turning to “MDADHLQRIFDEAVQAHGEGRLDEAEAGFRAVLEVLPHEGEALFGLGLTLMGLRRFSEAIPPLKAAAAEPGAEPVRFLCLAQGLYMTGAFAEAAETFAAVAHQDGFNDGARLTWARSAAYAALDDTDADSALALYGQIAGPVAEDLDTVAREGFSTLVAFERLAAARKLGQWLEARAPDDAIRAHELRVLTDPQIDRAPPAYVEALFDAFAERFDHQLLDNLEYQTPTLLAEMIGVADRRFTHMLDLGCGTGLAGPPLRARVARLTGVDLSTAMLAKAAERGGYDALVHAEAVAFLRETPDRFDLIVAADVFSYLGDLGDILAAAAGALSDDGLLAFSVEQGETWWRLLPSARYAHGDDYVRAAGAGVGLEVIQHRQTPLRRQADAAIPGGLYVLRKIRAA”, the protein production entry is given as “failed”.

Consider “MVDNKKKRQYPLVPLSVIQSALEEDPISIKMILKHYHSYIVKLCLTNGFNEAEQFITYVDEYMLRQLEIKLIEAILKFKINLEHHHHHH”, for which the protein production result is listed as “failed”.

For the sequence “MEDIVHKYKVSVIICFFNSAETLDAMIKDAVNQTLKDKEIILIDDGSYDGSLEIAEKYANKYSFIKIFSQKNMGLSASRDKGLSEAQGEYVIYWDGDDSVESTMLEVLYNRAKADNSDIVCSQFYIYFLAINVKRKSLLPFPNYPLTGKEAFKNLLFTVYATFGRKNFVVGTLWDKLIRRELILKNNIRQQNVVFEDIVFVMQIFLKASKVSFVNNYFYTNFQRMGSMSSSISVLHKSKLSLNTMETLLKREGIFNECQNLYKKFFLQFYYFISFKQIYIISWNISDKLVYRAYKEKLISVLDEIKGLSEFQDCYEYAKSFGFNEIQILPRIMLKIWNFSSRLYVNFSIFIYKFFIKN”, the protein production entry is on record as “failed”.
